Publication PMC7112944 (Science Advances, 2020)

Legend:
[1] = molecular target: T1, N_(460–525) (measles virus, UniProt P04851 460-525); experiment: ITC
T1 sequence (looked up): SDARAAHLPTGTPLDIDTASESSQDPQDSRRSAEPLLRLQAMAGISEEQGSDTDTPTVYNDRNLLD

[2] = molecular target: T1, N_(460–525); experiment: ITC + NMR titration

B1: Phosphoprotein XD domain (PXD), P_(457–507) (domain or fragment, measles virus, UniProt P03422 457-507, looked up)
chain: GPASRSVIRSIIKSSRLEEDRKRYLMTLLDDIKGANDLAKFHQMLMKIIMK
- dH [1]: -10.46 ± 0.0465 kcal/mol
- stoichiometry N [1]: 0.927 sites
- Kd [2]: ~5 µM
